Values belong to the molecule of their own block, whether it stands above or below them.
How the values were obtained:
[1] = molecular target: human TSHR (thyroid stimulating hormone receptor) expressed in transfected CHO cells (human) (UniProt P16473); assay: cell-based or functional assay
[2] = molecular target: TSHR with Lys209 mutated to Ala (human) (UniProt P16473); assay: cell-based or functional assay
wild type TSHR (human) = wild type TSHR (human) (UniProt P16473); assay: cell-based or functional assay
[3] = molecular target: TSHR with Arg274 mutated to Ala, expressed in CHO cells (human) (UniProt P16473); assay: cell-based or functional assay
[4] = molecular target: wild type TSHR expressed in CHO cells (human) (UniProt P16473); assay: cell-based or functional assay
[5] = molecular target: TSHR260-alkaline phosphatase (TSHR260-AP) (human) (UniProt P05187); assay: TSHR260-AP bridge ELISA, full length TSHR on wells; 1 µg/mL, diluted in assay buffer
[6] = molecular target: TSH receptor (TSHR), full length human, coated on tubes (human) (UniProt P16473); assay: inhibition of 125I-TSH binding to TSHR coated tubes; 0.1 µg/mL, diluted in assay buffer
[7] = molecular target: TSH receptor (TSHR), full length human, coated on tubes (human) (UniProt P16473); assay: inhibition of 125I-TSH binding to TSHR coated tubes; 1 µg/mL, diluted in HBD serum pool
TSHR260-AP (human) = assay: TSHR260-AP bridge ELISA (full length TSHR on wells, TSHR260-AP in solution); IgG 10 µg/mL diluted in HBD serum
[8] = molecular target: full length human TSHR with mutation Arg255 Asp (human) (UniProt P16473); assay: TSHR260-AP bridge ELISA, Arg255 Asp TSHR on wells; IgG at 1 µg/mL in HBD
[9] = molecular target: full length wild type human TSHR (human) (UniProt P16473); assay: TSHR260-AP bridge ELISA, wild type TSHR on wells; IgG at 10 µg/mL in HBD
[10] = molecular target: full length human TSHR with mutation Arg255 Asp (human) (UniProt P16473); assay: TSHR260-AP bridge ELISA, Arg255 Asp TSHR on wells; IgG at 0.1 µg/mL in HBD
[11] = molecular target: full length wild type human TSHR (human) (UniProt P16473); assay: TSHR260-AP bridge ELISA, wild type TSHR on wells; IgG at 0.01 µg/mL in HBD
[12] = molecular target: full length human TSHR with mutation Arg255 Asp (human) (UniProt P16473); assay: TSHR260-AP bridge ELISA, Arg255 Asp TSHR on wells; IgG at 0.05 µg/mL in HBD
[13] = molecular target: thyroid stimulating hormone receptor (TSHR), full length, coated on tubes (human) (UniProt P16473); assay: inhibition of 125I-TSH binding, TSHR coated tubes; antibody 10 µg/mL in HBD serum pool
[14] = molecular target: thyroid stimulating hormone receptor (TSHR), full length, coated on tubes (human) (UniProt P16473); assay: inhibition of 125I-TSH binding, TSHR coated tubes; antibody 100 µg/mL in HBD serum pool
[15] = molecular target: TSH receptor (TSHR), full length human, coated on tubes (human) (UniProt P16473); assay: inhibition of 125I-TSH binding to TSHR coated tubes; 0.01 µg/mL, diluted in HBD serum pool
[16] = molecular target: human thyroid stimulating hormone receptor (TSHR), full length (human) (UniProt P16473); assay: 125I-K1-70 Fab (competitor) binding to TSHR coated tubes; test sample 10 µg/mL in HBD serum
[17] = molecular target: human thyroid stimulating hormone receptor (TSHR), full length (human) (UniProt P16473); assay: 125I-K1-70 Fab (competitor) binding to TSHR coated tubes; test sample 0.1 µg/mL in HBD serum
[18] = molecular target: human thyroid stimulating hormone receptor (TSHR), full length (human) (UniProt P16473); assay: 125I-K1-70 Fab (competitor) binding to TSHR coated tubes; test sample 100 µg/mL in HBD serum
[19] = molecular target: human thyroid stimulating hormone receptor (TSHR), full length (human) (UniProt P16473); assay: 125I-K1-70 Fab (competitor) binding to TSHR coated tubes; test sample 0.01 µg/mL in HBD serum
[20] = molecular target: human thyroid stimulating hormone receptor (TSHR), full length (human) (UniProt P16473); assay: 125I-K1-70 Fab (competitor) binding to TSHR coated tubes; test sample 1 µg/mL in assay buffer
[21] = molecular target: human thyroid stimulating hormone receptor (TSHR), full length (human) (UniProt P16473); assay: 125I-K1-70 Fab (competitor) binding to TSHR coated tubes; test sample 10 µg/mL in assay buffer
[22] = molecular target: human thyroid stimulating hormone receptor (TSHR), full length (human) (UniProt P16473); assay: 125I-K1-70 Fab (competitor) binding to TSHR coated tubes; test sample 0.1 µg/mL in assay buffer
[23] = molecular target: TSHR260-alkaline phosphatase (TSHR260-AP) (human) (UniProt P05187); assay: TSHR260-AP bridge ELISA, full length TSHR on wells; 0.005 µg/mL, diluted in HBD
[24] = molecular target: TSHR260-alkaline phosphatase (TSHR260-AP) (human) (UniProt P05187); assay: TSHR260-AP bridge ELISA, full length TSHR on wells; 0.005 µg/mL, diluted in assay buffer

Molecule: 5B3 IgG (antibody)
% Inhibition; 10 ng/mL K1-18 IgG + 10 µg/mL 5B3 IgG [1]: 4%
% Inhibition; 10 ng/mL K1-18 IgG + 100 µg/mL 5B3 IgG [1]: -13%
Cyclic AMP concentration; 10 ng/mL K1-18 IgG + 10 µg/mL 5B3 IgG [1]: 35.4 pmol/mL
Cyclic AMP concentration; 10 ng/mL K1-18 IgG + 100 µg/mL 5B3 IgG [1]: 41.9 pmol/mL
Cyclic AMP concentration; 100 µg/mL 5B3 IgG [1]: 1.3 pmol/mL
% inhibition of TSH stimulation, 5B3 10 µg/mL, mutated TSHR [2]: 2%
% inhibition of TSH stimulation, 5B3 100 µg/mL, mutated TSHR [2]: 3%
Cyclic AMP produced (pmol/mL), 5B3 10 µg/mL + TSH 3 ng/mL, mutated TSHR [2]: 56.5 pmol/mL
Cyclic AMP produced (pmol/mL), 5B3 100 µg/mL + TSH 3 ng/mL, mutated TSHR [2]: 55.9 pmol/mL
Mutated/wild type (%) of cyclic AMP produced; 5B3 10 µg/mL + TSH 3 ng/mL [2]: 74%
Mutated/wild type (%) of cyclic AMP produced; 5B3 100 µg/mL + TSH 3 ng/mL [2]: 64%
% inhibition of TSH stimulation, 5B3 10 µg/mL, wild type TSHR (wild type TSHR (human)): 3%
Cyclic AMP produced (pmol/mL), 5B3 10 µg/mL + TSH 3 ng/mL, wild type TSHR (wild type TSHR (human)): 76.6 pmol/mL
Cyclic AMP produced (pmol/mL), 5B3 100 µg/mL + TSH 3 ng/mL, wild type TSHR (wild type TSHR (human)): 87.7 pmol/mL
% inhibition of TSH stimulation; 5B3 10 µg/mL [3]: 0%
% inhibition of TSH stimulation; 5B3 100 µg/mL [3]: 4%
Cyclic AMP produced; 5B3 10 µg/mL + TSH 3 ng/mL [3]: 106 pmol/mL
Cyclic AMP produced; 5B3 10 µg/mL + TSH 3 ng/mL (second row printed with 10 µg/mL) [3]: 95.3 pmol/mL
Mutated/wild type (%) of cyclic AMP produced; 5B3 10 µg/mL + TSH 3 ng/mL [3]: 92%
Mutated/wild type (%) of cyclic AMP produced; 5B3 10 µg/mL + TSH 3 ng/mL (second row printed with 10 µg/mL) [3]: 79%
% inhibition of TSH stimulation; 5B3 10 µg/mL [4]: 0%
% inhibition of TSH stimulation; 5B3 100 µg/mL [4]: 0%
Cyclic AMP produced; 5B3 10 µg/mL + TSH 3 ng/mL [4]: 116 pmol/mL
Cyclic AMP produced; 5B3 10 µg/mL + TSH 3 ng/mL (second row printed with 10 µg/mL) [4]: 121 pmol/mL
Mean absorbance at 405 nm (absorbance at 405 nm) [5]: -0.004
Inhibition of binding (%) [6]: -5%
Inhibition of binding (%) [7]: -4.9%
Mean absorbance at 405 nm (absorbance at 405 nm) (TSHR260-AP (human)): -0.006

Molecule: 9D33 IgG (antibody)
% Inhibition; 10 ng/mL K1-18 IgG + 0.001 µg/mL 9D33 IgG [1]: 3%
% Inhibition; 10 ng/mL K1-18 IgG + 0.01 µg/mL 9D33 IgG [1]: 15%
% Inhibition; 10 ng/mL K1-18 IgG + 0.1 µg/mL 9D33 IgG [1]: 86%
% Inhibition; 10 ng/mL K1-18 IgG + 1 µg/mL 9D33 IgG [1]: 95%
% Inhibition; 10 ng/mL K1-18 IgG + 10 µg/mL 9D33 IgG [1]: 95%
% Inhibition; 10 ng/mL K1-18 IgG + 100 µg/mL 9D33 IgG [1]: 94%
Cyclic AMP concentration; 10 ng/mL K1-18 IgG + 0.001 µg/mL 9D33 IgG [1]: 35.8 pmol/mL
Cyclic AMP concentration; 10 ng/mL K1-18 IgG + 0.01 µg/mL 9D33 IgG [1]: 31.3 pmol/mL
Cyclic AMP concentration; 10 ng/mL K1-18 IgG + 0.1 µg/mL 9D33 IgG [1]: 5.3 pmol/mL
Cyclic AMP concentration; 10 ng/mL K1-18 IgG + 1 µg/mL 9D33 IgG [1]: 1.9 pmol/mL
Cyclic AMP concentration; 10 ng/mL K1-18 IgG + 10 µg/mL 9D33 IgG [1]: 1.9 pmol/mL
Cyclic AMP concentration; 10 ng/mL K1-18 IgG + 100 µg/mL 9D33 IgG [1]: 2.2 pmol/mL
Cyclic AMP concentration; 100 µg/mL 9D33 IgG [1]: 2 pmol/mL
Mean absorbance at 405 nm (absorbance at 405 nm) [8]: 0.322
Mean absorbance at 405 nm (absorbance at 405 nm) [9]: 0.481
Mean absorbance at 405 nm (absorbance at 405 nm) [10]: 0.053
Mean absorbance at 405 nm (absorbance at 405 nm) [11]: 0.011
Mean absorbance at 405 nm (absorbance at 405 nm) [12]: 0.02
Inhibition of binding (%) [13]: 60.5%
Inhibition of binding (%) [6]: 48.3%
Inhibition of binding (%) [7]: 50.8%
Inhibition of binding (%) [14]: 67.4%
Inhibition of binding (%) [15]: 3.6%
Inhibition of binding (%) [16]: 47.7%
Inhibition of binding (%) [17]: 12.7%
Inhibition of binding (%) [18]: 55.7%
Inhibition of binding (%) [19]: -1.2%
Inhibition of binding (%) [20]: 43.8%
Inhibition of binding (%) [21]: 48%
Inhibition of binding (%) [22]: 29.7%

Molecule: TSH (ligand)
% inhibition of TSH stimulation, TSH (2) run at the end of assay, mutated TSHR [2]: 18%
Cyclic AMP produced (pmol/mL), TSH 3 ng/mL, mutated TSHR [2]: 57.9 pmol/mL
Cyclic AMP produced (pmol/mL), TSH (2) 3 ng/mL run at the end of assay, mutated TSHR [2]: 47.7 pmol/mL
Mutated/wild type (%) of cyclic AMP produced; TSH 3 ng/mL [2]: 73%
Mutated/wild type (%) of cyclic AMP produced; TSH (2) 3 ng/mL, run at the end of assay [2]: 52%
Cyclic AMP produced (pmol/mL), TSH 3 ng/mL, wild type TSHR (wild type TSHR (human)): 79 pmol/mL
Cyclic AMP produced (pmol/mL), TSH (2) 3 ng/mL run at the end of assay, wild type TSHR (wild type TSHR (human)): 91.5 pmol/mL
% inhibition of TSH stimulation; TSH (2) 3 ng/mL, run at the end of assay [3]: 0%
Cyclic AMP produced; TSH 3 ng/mL [3]: 99.2 pmol/mL
Cyclic AMP produced; TSH (2) 3 ng/mL, run at the end of assay [3]: 100 pmol/mL
Mutated/wild type (%) of cyclic AMP produced; TSH 3 ng/mL [3]: 102%
Mutated/wild type (%) of cyclic AMP produced; TSH (2) 3 ng/mL, run at the end of assay [3]: 92%
% inhibition of TSH stimulation; TSH (2) 3 ng/mL, run at the end of assay [4]: 0%
Cyclic AMP produced; TSH 3 ng/mL [4]: 97.1 pmol/mL
Cyclic AMP produced; TSH (2) 3 ng/mL, run at the end of assay [4]: 109 pmol/mL

Other lines, results leading:

Mean absorbance at 405 nm (absorbance at 405 nm) [8]: 0.34
Mean absorbance at 405 nm (absorbance at 405 nm) [9]: 1.36
Mean absorbance at 405 nm (absorbance at 405 nm) [10]: 0.05
Mean absorbance at 405 nm (absorbance at 405 nm) [11]: 0.064
Mean absorbance at 405 nm (absorbance at 405 nm) [12]: 0.017
Mean absorbance at 405 nm (absorbance at 405 nm) [23]: 0.045
Mean absorbance at 405 nm (absorbance at 405 nm) [5]: 0.821
Mean absorbance at 405 nm (absorbance at 405 nm) [24]: 0.075
Inhibition of binding (%) [15]: -0.3%
Mean absorbance at 405 nm (absorbance at 405 nm) (TSHR260-AP (human)): 0.796
Molecule: M22 IgG (antibody)

Mean absorbance at 405 nm (absorbance at 405 nm) [23]: 0.02
Mean absorbance at 405 nm (absorbance at 405 nm) [5]: 0.011
Inhibition of binding (%) [13]: 40.9%
Inhibition of binding (%) [14]: 35.3%
Mean absorbance at 405 nm (absorbance at 405 nm) [24]: -0.009
Inhibition of binding (%) [16]: 20.7%
Inhibition of binding (%) [17]: 6%
Inhibition of binding (%) [18]: 40.6%
Inhibition of binding (%) [19]: -4.4%
Inhibition of binding (%) [20]: 41.5%
Inhibition of binding (%) [21]: 80.4%
Inhibition of binding (%) [22]: 21.9%
Mean absorbance at 405 nm (absorbance at 405 nm) (TSHR260-AP (human)): 0.004
B1: 5C9 IgG (antibody, from another filing, V domains shown)
VH: EVQLVESGGGLIQPGGSLRLSCAASGFTVSSNYMSWVRQAPGKGLEWVSVTYSGGSTSYADSVKGRFTISRDNSKNTLYLQMNSLRAEDTAVYYCARGGRYCSSISCYARSGCDYWGQGTLVTVSS
VL: AIQMTQSPSSLSASVGDRVTITCRASQSISNYLNWYQQKPGKAPKLLIYAASSLQSGVPSRFSGSGSGTDFTLTISSLQPEDFATYYCQQSYSSPSTTFGQGTKLEIK

Source: patent US20110300138A1 (published 2011)
